Measurements as given in patent US20180134804A1.
Where “and” joins values, the source holds several entries; their conditions need not be identical. Equal values may be shown once.

Experiments:
[1] = target: HLA-A0201 on T2 cells without added peptide (human); test: flow cytometry: BB7 staining of T2 cells without peptide
[2] = target: Ras10-G12V peptide/HLA-A0201 complex on peptide-pulsed T2 cells (human)
[3] = target: Ras10-WT peptide/HLA-A0201 complex on peptide-pulsed T2 cells (human)
[4] = target: CD3 on purified human T cells (human) (UniProt P07766); test: flow cytometry of purified human CD3 T cells, BiTE at 1 ug/ml then FITC secondary; same sample file as in FIGURE 5B
CD3 on purified human T cells (human), sequence (P07766 23-207): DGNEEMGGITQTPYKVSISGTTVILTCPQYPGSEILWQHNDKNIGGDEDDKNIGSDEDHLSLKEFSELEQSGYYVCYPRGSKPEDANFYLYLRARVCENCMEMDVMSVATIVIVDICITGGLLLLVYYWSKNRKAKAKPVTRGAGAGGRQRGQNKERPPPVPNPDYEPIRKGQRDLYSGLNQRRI

[5] = target: CD3 on purified human T cells (human) (UniProt P07766); test: flow cytometry of purified human CD3 T cells, BiTE at 10 ug/ml then FITC secondary; same sample file as in FIGURE 5B
[6] = target: CD3 on purified human T cells (human) (UniProt P07766); test: flow cytometry of purified human CD3 T cells, BiTE at 0.1 ug/ml then FITC secondary; same sample file as in FIGURE 5B
[7] = target: CD3 on purified human T cells (human) (UniProt P07766); test: flow cytometry of purified human CD3 T cells, BiTE at 1 ug/ml then FITC secondary; secondary alone (GA6His_F 1;100) 8.13, unstained 8.13
[8] = target: CD3 on purified human T cells (human) (UniProt P07766); test: flow cytometry of purified human CD3 T cells, BiTE at 10 ug/ml then FITC secondary; secondary alone (GA6His_F 1;100) 8.13, unstained 8.13
[9] = target: CD3 on purified human T cells (human) (UniProt P07766); test: flow cytometry of purified human CD3 T cells, BiTE at 0.1 ug/ml then FITC secondary; secondary alone (GA6His_F 1;100) 8.13, unstained 8.13

Median:FL1-H [1] | Substance | Median:FL1-H [2] | Median:FL1-H [3] | Median:FL1-H [4] | Median:FL1-H [5] | Median:FL1-H [6] | Median:FL1-H [7] | Median:FL1-H [8] | Median:FL1-H [9]
316 | BB7 (antibody) | – | – | – | – | – | – | – | –
– | isotype control BiTE (bispecific antibody) | 11.2 and 11.4 | 10.7 and 11.2 | 229 | 604 | 39.6 | 229 | 604 | 39.6
